Measurements: US20180236071A1 (ACTICOR BIOTECH, published 2018)

T1: Soluble GPVI-Fc (human, UniProt Q9HCN6 21-269)
T1 construct: also called soluble human GPVI
T1 chain: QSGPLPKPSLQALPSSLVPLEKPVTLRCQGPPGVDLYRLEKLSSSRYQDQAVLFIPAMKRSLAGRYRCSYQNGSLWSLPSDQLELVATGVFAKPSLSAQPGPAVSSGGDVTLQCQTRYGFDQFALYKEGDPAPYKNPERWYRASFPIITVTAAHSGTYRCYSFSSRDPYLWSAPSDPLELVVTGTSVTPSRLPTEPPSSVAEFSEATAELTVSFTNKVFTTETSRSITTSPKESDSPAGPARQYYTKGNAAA

T2: murine GPVI (mouse, UniProt P0C191 22-265, limits assumed)
T2 construct: also called mouse GPVI
T2 sequence (looked up): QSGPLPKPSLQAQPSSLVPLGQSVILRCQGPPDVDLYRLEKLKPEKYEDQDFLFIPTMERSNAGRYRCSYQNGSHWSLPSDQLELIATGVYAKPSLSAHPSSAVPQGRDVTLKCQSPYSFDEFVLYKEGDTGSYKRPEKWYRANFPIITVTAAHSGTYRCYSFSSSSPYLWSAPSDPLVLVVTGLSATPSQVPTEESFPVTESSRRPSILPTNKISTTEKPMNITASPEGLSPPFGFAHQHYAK

T3: human Glycoprotein VI (GPVI) on platelets (human, UniProt Q9HCN6 21-339)
T3 chain: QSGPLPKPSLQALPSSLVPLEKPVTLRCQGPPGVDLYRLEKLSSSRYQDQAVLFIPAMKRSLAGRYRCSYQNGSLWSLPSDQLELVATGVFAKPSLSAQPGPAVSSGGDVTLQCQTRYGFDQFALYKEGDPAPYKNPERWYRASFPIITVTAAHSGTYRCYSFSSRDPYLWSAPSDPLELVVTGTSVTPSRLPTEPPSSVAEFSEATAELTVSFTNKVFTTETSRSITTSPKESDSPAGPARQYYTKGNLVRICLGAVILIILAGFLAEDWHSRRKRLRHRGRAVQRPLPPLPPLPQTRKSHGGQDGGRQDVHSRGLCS


Experiments:
Soluble GPVI-Fc = biological target: T1, Soluble GPVI-Fc; assay: SPR, BIAcore 2000, GPVI-Fc immobilised, Fab in flow, PBS pH 7.4
Protocol: Soluble GPVI-Fc (produced as described in Example 2) was immobilized in acetate buffer 10 mM pH 6 at a dose ranging from 960 to 1071 RU (corresponding about 6.4 to 7.15 fmol/mm²) onto a Carboxy-Methyl Dextran CMS sensor chip using the amine coupling method (Wizard procedure). The protein is then passed over the immobilized GPVI-Fc in PBS pH 7.4 (10 mM phosphate, 138 mM NaCl, 2.7 mM KCl, pH 7.42 at 25.4° C.) at a flow rate of 20 μL/min at 25° C. Kinetic constants (KA, KD, kₒₙ, koff) and affinity are determined using BIAevaluation version 3.0 software, by fitting data to binding model. PBS pH 7.4 is the running buffer.

murine GPVI = biological target: T2, murine GPVI; assay: not described
[1] = biological target: T3, human Glycoprotein VI (GPVI) on …; assay: cell-based or functional assay

Ka (Soluble GPVI-Fc)	Kd (Soluble GPVI-Fc)	koff (Soluble GPVI-Fc)	kon (Soluble GPVI-Fc)	binding result (murine GPVI)	mean IC50, intensity of collagen-induced platelet aggregation [1]	mean IC50, velocity of collagen-induced platelet aggregation [1]	Binder
1.4e+08 M⁻¹	7.3 nM	0.000476 s⁻¹	66500 M⁻¹ s⁻¹				ACT006 antibody (humanized Fab fragment) (Fab, V domains shown) VH: QVQLVQSGAEVKKPGASVKVSCKASGYTFTSYNMHWVRQAPGQGLEWMGGIYPGNGDTSYNQKFQGRVTMTRDTSTSTVYMELSSLRSEDTAVYYCARGTVVGDWYFDVWGQGTLVTVSS VL: DIQMTQSPSSLSASVGDRVTITCSASQSLENSNGNTYLNWYQQKPGKAPKLLIYRVSNRFSGVPSRFSGSGSGTDFTLTISSLQPEDFATYYCLQLTHVPWTFGQGTKVEIKR
2.57e+08 M⁻¹	4.1 nM	0.000232 s⁻¹	59700 M⁻¹ s⁻¹	no binding	3.2 µg/mL	2 µg/mL	ACT017 antibody (humanized Fab fragment) (Fab, V domains shown, Coupled to Alexa488 for the flow cytometry assay; also called ACT17; humanized Fab ACT017) VH: QVQLVQSGAEVKKPGASVKVSCKASGYTFTSYNMHWVRQAPGQGLEWMGGIYPGNGDTSYNQKFQGRVTMTRDTSTSTVYMELSSLRSEDTAVYYCARGTVVGDWYFDVWGQGTLVTVSS VL: DIQMTQSPSSLSASVGDRVTITCRSSQSLENSNGNTYLNWYQQKPGKAPKLLIYRVSNRFSGVPSRFSGSGSGTDFTFTISSLQPEDIATYYCLQLTHVPWTFGQGTKVEITR
